The source of these data is PMC12207370, “Macrocyclic Peptide Probes for Immunomodulatory Protein CD59: Potent Modulators of Bacterial Toxin Activity and Antibody‐Dependent Cytotoxicity” (Angewandte Chemie (International Ed. in English), 2025).

In the test the target is T1, biotinylated CD59 (Homo sapiens, UniProt P13987).
T1 construct: Recombinant soluble human CD59 with an additional C-terminal cysteine residue
T1 sequence (P13987 26-102 limits assumed): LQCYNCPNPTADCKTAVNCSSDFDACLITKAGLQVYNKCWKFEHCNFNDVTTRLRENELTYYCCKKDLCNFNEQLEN
The test is described as follows: mRNA-display cyclic peptide screen against CD59-biotin, NGS abundance after 6th selection round. To be noted: for Counts (raw counts for peptide sequence), Seq I: NGS sample Seq I; for Counts (raw counts for peptide sequence), Seq I / Counts (raw counts for peptide sequence), Seq II / Counts Seq I / Counts Seq II: sheet R6 (6th selection round); for Counts (raw counts for peptide sequence), Seq II: NGS sample Seq II; for Percentage of the pool, averaged across the two sequencing samples: average of Seq I and Seq II; for Percentage of the pool, averaged across the two sequencing samples / Percentage of the pool, Seq I / Percentage of the pool, Seq II / Percentage Seq I / Percentage Seq II / Percentage Average: sheet R6; for Percentage of the pool, Seq I: counts normalised by total counts of NGS sample Seq I; for Percentage of the pool, Seq II: counts normalised by total counts of NGS sample Seq II; for Percentage Seq I: counts normalised by total counts of sample Seq I; for Percentage Seq I / Percentage Seq II: percentage of the pool; for Percentage Seq II: counts normalised by total counts of sample Seq II; for Percentage Average: percentage of the pool averaged across the two sequencing samples; for Counts Seq I / Counts Seq II: raw NGS counts of peptide sequence; for Counts Seq I: sequencing sample Seq I; for Counts Seq II: sequencing sample Seq II. The source says:
To discover novel non‐protein CD59 ligands, we screened a library of 10^12 cyclic peptides against CD59 using mRNA‐display (Figure 2a).^[ [23], [24], [25], [26], [27], [28], [29] ^] Briefly, an mRNA library was designed in which the start codon was reprogrammed from Met to N‐chloroacetyl‐D‐Tyr (ClAc‐D‐Tyr), followed by 10–12 randomly encoded natural amino acids, a Cys residue, a (GlySer)3 linker, and a stop codon. […] The total library diversity was 1.51 × 10^13 molecules, comprising 5.02 × 10^12 molecules of each macrocycle size, covering a subset of the maximum theoretical diversity of this library design. Following in vitro translation, ClAc‐D‐Tyr spontaneously reacts with either the C‐terminal Cys or a Cys in the random region, yielding macrocyclic thioether peptides. Hits from the library were identified through iterative enrichment and amplification against biotinylated CD59, then immobilized on streptavidin beads. Fifteen hit sequences (CP‐01 to CP‐15), enriched with abundance >1% relative to the total pool of recovered binders after the 6th round of selection, were synthesized by solid phase peptide synthesis (SPPS), without the (Gly‐Ser)3 linker.
Figure 2 Discovery of macrocyclic peptide ligands with nanomolar CD59 affinity using mRNA display. a) The selection process. PCR = polymerase chain reaction, SPPS = solid phase peptide synthesis. b) Table showing details of the peptides with nanomolar affinity for CD59 as well as the binding affinity of the lead inhibitor of CD59, rILYd4. K D values are presented as the average of three technical replicates ± SEM. Structures of all peptides and SPR sensograms are presented in Figures S1 and S2. *indicates the presented sequences are the variable regions of these cyclic peptides; each is flanked by an N‐terminal Ac‐D‐Tyr cyclized to a C‐terminal Cys. R6 abundance (%) is defined as (the given number of NGS reads for a given sequence/the total number of reads of unique sequences observed in NGS)*100 following the 6th selection round. c) Representative sensogram of the interaction between CP‐06 with immobilized CD59 by SPR analysis. Inset showing the equilibrium binding curve of CP‐06 to CD‐59. Below in the box are the association and dissociation rate constants of CP‐06. Concentrations are plotted in descending order from 800‐3.1 nM in line with their position on the legend. […] (nM)'; the box with Kon/Koff has no label of its own / ILYd4: the label may be cut off at the left edge (possibly 'rILYd4') / CP-02, KD: 15.3 ± 0.2, small print, 3 or 8 uncertain / CP-03, KD: 23.4 ± 0.7, small print / CP-06, KD: 11.3 ± 0.0, small print, 3 or 8 uncertain / CP-13, KD: 10.8 ± 0.7, small print, 8 or 6 uncertain / ILYd4, KD: 48.3 ± 1.1, small print, 8 and 3 uncertain
The mRNA-display cyclic peptide screen was performed against CD59-biotin by T.E.M: DNA templates for transcription were generated by PCR in a similar manner to that previously described.^2 RNA oligonucleotides were transcribed from the DNA templates using T7 RNA polymerase and purified by phenol/chloroform extraction followed by ethanol precipitation. Oligonucleotide concentrations were determined spectroscopically by absorbance at 260 nm. In the first selection round a 1:1:1 molar ratio of NNK10/NNK11/NNK12 was used. The procedure for selection rounds 2-6 is described below; round 1 was conducted at twice the scale.
RNA encoding for the peptide library ligated to a puromycin-modified oligonucleotide was […] (final [RNA] = 2.5 µM) using a customised PURE express kit (lacking release factor 1 and methionine, supplemented with […] initiator tRNA acylated with N-chloroacetyl-d-tyrosine prepared as previously described)^3 in a final volume of 5.6 µL for 1 hour at 37 °C.
This mixture was incubated at 42 °C for 1 hour before being diluted to 500 µL with PBS (10 mM Na-PO4 pH 7.4, 2.7 mM KCl, 137 mM NaCl) and 0.5 µL taken for subsequent use in qPCR. […]

Take DSRNQCHTWKT: the “Counts (raw counts for peptide sequence), Seq I” value is reported as 87; the “Counts (raw counts for peptide sequence), Seq II” value is listed as 6; the “Percentage of the pool, averaged across the two sequencing samples” value amounted to 0.017%; the “Percentage of the pool, Seq I” value is 0.020%. The “Percentage of the pool, Seq II” value is recorded as 0.014%.

Regarding YLFGDRFSVRG, the “Percentage Seq I” value was found to be 0.094%, the “Percentage Seq II” value came out at 0.100%, the “Percentage Average” value turned out to be 0.097% and the “Counts Seq I” value was found to be 412. In addition, the “Counts Seq II” value was found to be 43.

As to CIRGTPTTV, the “Counts (raw counts for peptide sequence), Seq I” value turned out to be 56; the “Counts (raw counts for peptide sequence), Seq II” value came out at 3; the “Percentage of the pool, averaged across the two sequencing samples” value amounted to 0.010%; the “Percentage of the pool, Seq I” value worked out at 0.013%. The “Percentage of the pool, Seq II” value was 0.007%.

With YIVGSSDYTRG, the “Percentage Seq I” value stood at 0.417%, the “Percentage Seq II” value is listed as 0.388%, the “Percentage Average” value is on record as 0.402% and the “Counts Seq I” value is listed as 1825. The “Counts Seq II” value came out at 167.

In the case of VVRGGTAFRYE, the “Percentage Seq I” value is 0.022%, the “Percentage Seq II” value turned out to be 0.026%, the “Percentage Average” value is recorded as 0.024% and the “Counts Seq I” value turned out to be 96. Further, the “Counts Seq II” value came out at 11.

Consider SAWGNRQTQYY, for which the “Percentage Seq I” value is given as 1.151%, the “Percentage Seq II” value was found to be 1.160%, the “Percentage Average” value amounted to 1.156% and the “Counts Seq I” value is 5037. Moreover, the “Counts Seq II” value turned out to be 500.

Turning to CYTAGSASWSRG, the “Percentage Seq I” value worked out at 0.726%, the “Percentage Seq II” value is 0.680%, the “Percentage Average” value is on record as 0.703% and the “Counts Seq I” value is given as 3176. Also, the “Counts Seq II” value turned out to be 293.

With FVRGNRYSVLG, the “Counts (raw counts for peptide sequence), Seq I” value turned out to be 64; the “Counts (raw counts for peptide sequence), Seq II” value worked out at 5; the “Percentage of the pool, averaged across the two sequencing samples” value came to 0.013%; the “Percentage of the pool, Seq I” value stood at 0.015%. Moreover, the “Percentage of the pool, Seq II” value worked out at 0.012%.

As to HVLGNRSFTRG, the “Percentage Seq I” value is given as 0.071%, the “Percentage Seq II” value is 0.084%, the “Percentage Average” value is given as 0.077% and the “Counts Seq I” value amounted to 312. Also, the “Counts Seq II” value was 36.

As for CFAGRLTIDAG, the “Counts (raw counts for peptide sequence), Seq I” value is reported as 59; the “Counts (raw counts for peptide sequence), Seq II” value amounted to 4; the “Percentage of the pool, averaged across the two sequencing samples” value is listed as 0.011%; the “Percentage of the pool, Seq I” value turned out to be 0.013%. For the same sequence, the “Percentage of the pool, Seq II” value is reported as 0.009%.

For the sequence CFSSRVQSGDT, the “Percentage Seq I” value was found to be 0.214%, the “Percentage Seq II” value is 0.190%, the “Percentage Average” value is on record as 0.202% and the “Counts Seq I” value worked out at 936. Besides, the “Counts Seq II” value turned out to be 82.

In the case of HCWVRGGRNYT, the “Percentage Seq I” value is on record as 0.024%, the “Percentage Seq II” value is on record as 0.014%, the “Percentage Average” value was found to be 0.019% and the “Counts Seq I” value turned out to be 104. The “Counts Seq II” value is 6.

Consider RAWGNRYIAYY, for which the “Percentage Seq I” value is on record as 0.027%, the “Percentage Seq II” value is reported as 0.030%, the “Percentage Average” value amounted to 0.029% and the “Counts Seq I” value came out at 119. Also, the “Counts Seq II” value came to 13.

In the case of CAWGNRYIAYY, the “Percentage Seq I” value was 0.078%, the “Percentage Seq II” value was determined as 0.067%, the “Percentage Average” value is reported as 0.073% and the “Counts Seq I” value is given as 342. For the same sequence, the “Counts Seq II” value came out at 29.

For SRGGKDWSRG, the “Percentage Seq I” value is recorded as 0.235%, the “Percentage Seq II” value turned out to be 0.251%, the “Percentage Average” value is reported as 0.243% and the “Counts Seq I” value is on record as 1026. Also, the “Counts Seq II” value worked out at 108.

As for CFARRLSSSHSL, the “Percentage Seq I” value is listed as 0.161%, the “Percentage Seq II” value came to 0.155%, the “Percentage Average” value came to 0.158% and the “Counts Seq I” value came to 705. In addition, the “Counts Seq II” value turned out to be 67.

Take GRRNECLSRTS: the “Counts (raw counts for peptide sequence), Seq I” value came out at 68; the “Counts (raw counts for peptide sequence), Seq II” value is reported as 3; the “Percentage of the pool, averaged across the two sequencing samples” value is listed as 0.011%; the “Percentage of the pool, Seq I” value is 0.016%. For the same sequence, the “Percentage of the pool, Seq II” value was found to be 0.007%.

In the case of LYSHPRSLCSFS, the “Percentage Seq I” value came out at 0.082%, the “Percentage Seq II” value amounted to 0.091%, the “Percentage Average” value was determined as 0.086% and the “Counts Seq I” value was found to be 357. Moreover, the “Counts Seq II” value is on record as 39.

As to SAWGNRQIQYY, the “Percentage Seq I” value was 7.073%, the “Percentage Seq II” value was 7.046%, the “Percentage Average” value was 7.059% and the “Counts Seq I” value is reported as 30945. In addition, the “Counts Seq II” value was determined as 3036.

Turning to LWGTRSFTLVRS, the “Counts (raw counts for peptide sequence), Seq I” value is given as 64; the “Counts (raw counts for peptide sequence), Seq II” value stood at 5; the “Percentage of the pool, averaged across the two sequencing samples” value is reported as 0.013%; the “Percentage of the pool, Seq I” value worked out at 0.015%. Further, the “Percentage of the pool, Seq II” value was 0.012%.

On to WRDRFDQCVI, for which the “Counts (raw counts for peptide sequence), Seq I” value turned out to be 37; the “Counts (raw counts for peptide sequence), Seq II” value is on record as 5; the “Percentage of the pool, averaged across the two sequencing samples” value amounted to 0.010%; the “Percentage of the pool, Seq I” value came to 0.00846%. Further, the “Percentage of the pool, Seq II” value is given as 0.012%.

FVFGNRHFRTE: the “Percentage Seq I” value is 0.408%, the “Percentage Seq II” value is on record as 0.492%, the “Percentage Average” value was found to be 0.450% and the “Counts Seq I” value came out at 1785. Further, the “Counts Seq II” value is 212.

For the sequence LCAENPLRPR, the “Percentage Seq I” value is 0.075%, the “Percentage Seq II” value came out at 0.077%, the “Percentage Average” value came to 0.076% and the “Counts Seq I” value amounted to 329. For the same sequence, the “Counts Seq II” value stood at 33.

As to CFARRVNNSSL, the “Percentage Seq I” value is listed as 0.031%, the “Percentage Seq II” value is on record as 0.028%, the “Percentage Average” value came out at 0.030% and the “Counts Seq I” value was determined as 137. Besides, the “Counts Seq II” value is listed as 12.

As to EARGTKSFAYY, the “Percentage Seq I” value stood at 0.124%, the “Percentage Seq II” value came to 0.100%, the “Percentage Average” value is on record as 0.112% and the “Counts Seq I” value amounted to 544. In addition, the “Counts Seq II” value came to 43.

In the case of VASGGRYWSRA, the “Percentage Seq I” value stood at 0.103%, the “Percentage Seq II” value is listed as 0.139%, the “Percentage Average” value is recorded as 0.121% and the “Counts Seq I” value stood at 449. Besides, the “Counts Seq II” value is recorded as 60.
